In US20200299373A1:
Values joined by “and” are separate entries in the source; they are usually repeats but may differ in a detail not shown here. Equal entries are not always repeated.

Experiments:
[1] = molecular target: T1, FAM19A5 epitope fragment F6 conjugated to BSA (human); assay: ELISA, antigen coated on the plate, antibody in solution, absorbance at 492 nm; settings: remark: other sources report otherwise
T1 chain: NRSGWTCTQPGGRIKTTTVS

[2] = molecular target: T2, FAM19A5 epitope fragment F3 conjugated to BSA (human); assay: as above; settings: remark: other sources report otherwise
T2 chain: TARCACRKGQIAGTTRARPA

[3] = molecular target: T3, FAM19A5 epitope fragment F4 conjugated to BSA (human); assay: as above; settings: remark: other sources report otherwise
T3 chain: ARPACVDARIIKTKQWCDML

[4] = molecular target: T4, FAM19A5 epitope fragment F5 conjugated to BSA (human); assay: as above; settings: remark: other sources report otherwise
T4 chain: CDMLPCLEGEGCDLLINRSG

[5] = molecular target: T5, FAM19A5 epitope fragment F1 conjugated to BSA (human); assay: as above; settings: remark: other sources report otherwise
T5 chain: QLAAGTCEIVTLDR

[6] = molecular target: recombinant human FAM19A5 protein (His-tagged) (human) (UniProt Q7Z5A7); assay: two-site sandwich ELISA; capture antibody 13B4; S/N = O.D. at 10 ng/mL antigen / O.D. at 0 ng/mL; O.D. in column 0 printed 0.15
[7] = molecular target: recombinant human FAM19A5 protein (His-tagged) (human) (UniProt Q7Z5A7); assay: two-site sandwich ELISA; capture antibody 3-2; biotinylated detection antibody 1-65; antigen in ng/mL
[8] = molecular target: recombinant human FAM19A5 protein (His-tagged) (human) (UniProt Q7Z5A7); assay: two-site sandwich ELISA; capture antibody P2-A03; S/N = O.D. at 10 ng/mL antigen / O.D. at 0 ng/mL; O.D. in column 0 printed 0.1
[9] = molecular target: recombinant human FAM19A5 protein (His-tagged) (human) (UniProt Q7Z5A7); assay: two-site sandwich ELISA; capture antibody P2-F11; biotinylated detection antibody 1-65; antigen in ng/mL
[10] = molecular target: recombinant human FAM19A5 protein (His-tagged) (human) (UniProt Q7Z5A7); assay: two-site sandwich ELISA; capture antibody P2-F11; S/N = O.D. at 10 ng/mL antigen / O.D. at 0 ng/mL; O.D. in column 0 printed 0.19
[11] = molecular target: recombinant human FAM19A5 protein (His-tagged) (human) (UniProt Q7Z5A7); assay: two-site sandwich ELISA; capture antibody P2-A03; biotinylated detection antibody 1-65; antigen in ng/mL
[12] = molecular target: recombinant human FAM19A5 protein (His-tagged) (human) (UniProt Q7Z5A7); assay: ELISA, His-FAM19A5 (positive control) coated on the plate, absorbance at 492 nm
[13] = molecular target: recombinant human FAM19A5 protein (His-tagged) (human) (UniProt Q7Z5A7); assay: ELISA on coated FAM19A5, as in Example 6
[14] = molecular target: recombinant human FAM19A5 protein (His-tagged) (human) (UniProt Q7Z5A7); assay: two-site sandwich ELISA; capture antibody 13B4; biotinylated detection antibody 1-65; antigen in ng/mL
[15] = molecular target: recombinant human FAM19A5 protein (His-tagged) (human) (UniProt Q7Z5A7); assay: two-site sandwich ELISA; capture antibody 3-2; S/N = O.D. at 10 ng/mL antigen / O.D. at 0 ng/mL; O.D. in column 0 printed 0.28
[16] = molecular target: recombinant human FAM19A5 protein (His-tagged) (human) (UniProt Q7Z5A7); assay: two-site sandwich ELISA; capture antibody 2-13; biotinylated detection antibody 1-65; antigen in ng/mL
[17] = molecular target: recombinant human FAM19A5 protein (His-tagged) (human) (UniProt Q7Z5A7); assay: two-site sandwich ELISA; capture antibody 2-13; S/N = O.D. at 10 ng/mL antigen / O.D. at 0 ng/mL; O.D. in column 0 printed 0.55
[18] = molecular target: recombinant human FAM19A5 protein (His-tagged) (human) (UniProt Q7Z5A7); assay: ELISA on N'-Term His FAM19A5, fit of the titration (OD 492 nm); R2 printed 0.8806

B1: anti-FAM19A5 antibody 3-2 (antibody, V domains shown)
VH: not shown
VL: ALTQPSSVSANPGETVKITCSGGGSYAGSYYYGWYQQKAPGSAPVTLIYESNKRPSDIPSRFSGSTSGSTATLTITGVQADDEAIYYCGSWDSSNGGIFGAGTTLTVL
modifications: here or on the partner: conjugated to BSA
[1]
  O.D.: 0.05
[2]
  O.D.: 0.06 and 0.05
[3]
  O.D.: 0.05
[4]
  O.D.: 0.05
[5]
  O.D.: 0.06 and 0.05

B2: anti-FAM19A5 antibody 1-65 (antibody, V domains shown)
VH: AVTLDESGGGLQTPGGALSLVCKASGFTFSSYQMGWVRQAPGKGLEWVGVINKSGSDTSYGSAVKGRATISRDNGQSTVRLQLNNLRAEDTGTYFCAKGSASYITAATIDAWGHGTEVIVSS
VL: ALTQPSSVSANPGETVKITCSGGGSSGYGYGWYQQKSPSSAPLTVIYWNDKRPSDIPSRFSGSKSGSTHTLTITGVQAEDEAVYFCGNDDYSSDSGYVGVFGAGTTLTVL
[6]
  S/N: 1
[7]
  O.D., antigen 100: 1.98
  O.D., antigen column 10: 1.83
[8]
  S/N: 1.1
[9]
  O.D., antigen 100: 1.61
  O.D., antigen column 10: 0.33
[10]
  S/N: 1.7
[11]
  O.D., antigen 100: 0.16
  O.D., antigen column 10: 0.11
[12]
  O.D.: 3.95
[13]
  Kd: 0.1 nM
[14]
  O.D., antigen 100: 0.19
  O.D., antigen column 10: 0.15
[15]
  S/N: 6.5
[16]
  O.D., antigen 100: 1.73
  O.D., antigen column 10: 1.81
[17]
  S/N: 3.3
[18]
  Bmax: 3.26
